According to US20190161539A1 (published 2019):
One block for each binder: values may come before it.

How the values were obtained:
human tau aggregates = target: T1, human tau aggregates (human, UniProt P10636 2-758); experiment: SPR (BIACORE 2000), antibody captured on protein A, 1:1 fit
T1 construct: also called fibril tau; tau fibril aggregate
Description: (§1) Except as noted, all reagents and materials are from BIACORE® AB (Upsala, Sweden). A CM5 chip containing immobilized protein A (generated using standard NHS-EDC amine coupling) on all four flow cells (FC) is used to employ a capture methodology. Antibody samples are prepared at 0.5 μg/mL by dilution into running buffer. Monomeric tau and fibril tau are prepared to concentrations of 2000, 1000, 500, 250, 125, 62.5, 31.25, 15.63, 7.82, 3.91, 1.95, and 0 (blank) nM by dilution into running buffer. Each analysis cycle consists of: (1) capturing antibody samples on separate flow cells (FC2, FC3, and FC4); (2) injection of 250 μL (300 sec) of either monomeric tau or tau fibril aggregate over respective FC at a rate of 50 μL/min; (3) return to buffer flow for 20 mins. to monitor dissociation phase; (4) regeneration of chip surfaces with 25 μL (30 sec) injection of glycine, pH1.5; (5) equilibration of chip surfaces with a 50 μL (60 sec) injection of HBS-EP+.
Data of binding to tau aggregate is processed using standard double-referencing and fit to a 1:1 binding model using Biacore 2000 Evaluation software, version 4.1, to determine the association rate (kₒₙ, M⁻¹s⁻¹ units), dissociation rate (koff, s⁻¹ units), and Rₘₐₓ (RU units). The equilibrium dissociation constant (KD) was calculated from the relationship KD=koff/kₒₙ, and is in molar units. […] Therefore, KD for binding to monomeric tau is obtained by using a steady state binding fit model from plotting the concentration of antigen versus the response unit.

[1] = target: T2, human monomeric (native or non-aggregate) tau (human, UniProt P10636 2-758); experiment: SPR (BIACORE 2000), antibody captured on protein A, steady state fit
T2 construct: also called Monomeric Tau; monomeric tau
T2 sequence (P10636 other isoform, or with tags, fused parts or gaps limits assumed): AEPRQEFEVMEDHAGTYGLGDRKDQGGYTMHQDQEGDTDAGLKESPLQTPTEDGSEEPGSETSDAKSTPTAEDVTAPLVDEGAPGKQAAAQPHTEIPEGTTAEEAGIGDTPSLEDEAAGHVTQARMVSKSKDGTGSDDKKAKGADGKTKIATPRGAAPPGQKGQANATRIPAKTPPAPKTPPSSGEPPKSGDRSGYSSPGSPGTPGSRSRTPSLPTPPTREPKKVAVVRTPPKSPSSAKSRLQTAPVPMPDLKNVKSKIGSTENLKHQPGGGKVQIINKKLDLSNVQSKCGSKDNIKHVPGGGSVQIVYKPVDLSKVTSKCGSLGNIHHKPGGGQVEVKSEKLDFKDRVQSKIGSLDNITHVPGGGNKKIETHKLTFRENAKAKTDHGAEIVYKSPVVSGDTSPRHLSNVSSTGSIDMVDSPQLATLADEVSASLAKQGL
Description: as §1
Data of binding to tau aggregate is processed using standard double-referencing and fit to a 1:1 binding model using Biacore 2000 Evaluation software, version 4.1, to determine the association rate (kₒₙ, M⁻¹s⁻¹ units), dissociation rate (koff, s⁻¹ units), and Rₘₐₓ (RU units). The equilibrium dissociation constant (KD) was calculated from the relationship KD=koff/kₒₙ, and is in molar units. […]

[2] = target: T3, aggregate tau fibrils purified from AD brain homogenates (human, UniProt P10636-8 2-441, limits assumed); experiment: ELISA on coated tau fibrils purified from AD brain
T3 construct: Brain-derived aggregates; also called Purified AD Tau Fibrils; purified tau fibrils
T3 sequence (P10636 other isoform, or with tags, fused parts or gaps limits assumed): as above

[3] = target: T4, β-amyloid peptide (1-42) conjugated to BSA (C-terminal Cys43 coupled to maleimide-activated bovine serum albumin); experiment: competition ELISA on coated Aβ1-42-BSA against biotinylated Mu266, second set of three experiments
T4 construct: Coated on the ELISA plate; BSA carrier not written as a chain; also called Aβ1-42-BSA conjugate; Aβ1-42-Cys-BSA conjugate
Description: (§2) The Aβ₁₋₄₂-BSA conjugate was prepared by dissolving 7.5 mg of Aβ₁₋₄₂-Cys₄₃ (C-terminal cysteine Aβ₁₋₄₂, AnaSpec) in 500 μL of dimethylsulfoxide, and then immediately adding 1,500 μL of distilled water. Two (2) milligrams of maleimide-activated bovine serum albumin (Pierce) was dissolved in 200 μL of distilled water. The two solutions were combined, thoroughly mixed, and allowed to stand at room temperature for two (2) hours. A gel chromatography column was used to separate unreacted peptide from Aβ₁₋₄₂-Cys-BSA conjugate.
(§3) After washing the wells with phosphate buffered saline (PBS) containing 0.1% Tween 20 (Washing Buffer) using an ELISA plate washer, the wells were blocked by adding 300 μL of SuperBlock reagent (Pierce) per well. After 30 minutes of blocking, the wells were washed Washing Buffer and excess liquid was removed.
(§4) As a background control, 100 μl of ELISA Buffer was added. The ELISA plate was incubated at room temperature for 90 min. After washing the wells with Washing Buffer, 100 μl of 1 μg/ml HRP-conjugated streptavidin (Cat #21124, Pierce) was added to each well. […] Absorbance was read at 415 nm. The absorbances were plotted against the log of the competitor concentration, curves were fit to the data points (using Prism) and the IC50 was determined for each antibody using methods well-known in the art.

[4] = target: T4, β-amyloid peptide (1-42) conjugated to …; experiment: competition ELISA on coated Aβ1-42-BSA against biotinylated Mu266, first set of three experiments
Description: as §2, §3, §4

Aβ1-42 = experiment: method only given as 'essentially as described above' (KD=Kd/Ka)

T1 sequence (P10636 other isoform, or with tags, fused parts or gaps limits assumed): as above

- Kd (human tau aggregates): < 0.22 nM
- koff (human tau aggregates): < 1e-05 s⁻¹
- kon (human tau aggregates): 45900 M⁻¹ s⁻¹
- Kd [1]: 235 nM
- EC50 [2]: 6.8 pM
B1: Exemplified anti-Tau antibody (having both HCs of SEQ ID NO.68 and both LCs of SEQ ID NO.67) (antibody, human IgG4 S228P, kappa, F234A L235A, V domains shown)
VH: EVQLVQSGAEVKKPGESLKISCKGSGYTFSNYWIEWVRQMPGKGLEWMGEILPGSDSIKYEKNFKGQVTISADKSISTAYLQWSSLKASDTAMYYCARRGNYVDDWGQGTLVTVSS
VL: EIVLTQSPGTLSLSPGERATLSCRSSQSLVHSNQNTYLHWYQQKPGQAPRLLIYKVDNRFSGIPDRFSGSGSGTDFTLTISRLEPEDFAVYYCSQSTLVPLTFGGGTKVEIKR
notes: also called Exemplified anti-Tau mAb; exemplified tau monoclonal antibody

- IC50 [3]: 4 µg/mL
- IC50 [4]: 7.5 µg/mL
- Kd (Aβ1-42): 4 pM
B2: humanized 266 antibody (Hu266) (antibody, human IgG1, kappa, V domains shown)
VH: EVQLVESGGGLVQPGGSLRLSCAASGFTFSRYSMSWVRQAPGKGLELVAQINSVGNSTYYPDTVKGRFTISRDNAKNTLYLQMNSLRAEDTAVYYCASGDYWGQGTLVTVSS
VL: DVVMTQSPLSLPVTLGQPASISCRSSQSLIYSDGNAYLHWFLQKPGQSPRLLIYKVSNRFSGVPDRFSGSGSGTDFTLKISRVEAEDVGVYYCSQSTHVPWTFGQGTKVEIKR
notes: Mature antibody expressed from pVk-Hu266 and pVg1-Hu266 in Sp2/0 cells; also called exemplified anti-Aβ antibody
